Laboratory results from patent publication US20140030216.

Assays:
[1] = target: T1, recombinant rhIFNAR1 (≈110 kD), P17181
T1 chain: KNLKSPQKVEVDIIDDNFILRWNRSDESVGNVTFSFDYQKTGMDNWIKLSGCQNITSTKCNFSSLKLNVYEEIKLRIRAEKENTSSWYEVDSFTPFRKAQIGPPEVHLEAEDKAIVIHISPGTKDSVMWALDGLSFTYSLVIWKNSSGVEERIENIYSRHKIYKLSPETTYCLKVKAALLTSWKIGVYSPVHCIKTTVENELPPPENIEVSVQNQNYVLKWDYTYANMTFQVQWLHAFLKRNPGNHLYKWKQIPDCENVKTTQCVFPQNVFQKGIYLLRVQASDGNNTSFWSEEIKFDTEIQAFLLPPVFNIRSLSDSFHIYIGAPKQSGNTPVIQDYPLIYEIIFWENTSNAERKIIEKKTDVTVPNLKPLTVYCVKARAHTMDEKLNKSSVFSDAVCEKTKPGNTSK

Chain of rhMCP-3, P80098 (P80098 24-99): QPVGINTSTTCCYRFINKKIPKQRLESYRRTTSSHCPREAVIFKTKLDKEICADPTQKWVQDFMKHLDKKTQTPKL

B1: Purified human MMP-2 (mixture of the proenzyme (50%) and the active form (50%)) (protein)
chain: YNFFPRKPKWDKNQITYRIIGYTPDLDPETVDDAFARAFQVWSDVTPLRFSRIHDGEADIMINFGRWEHGDGYPFDGKDGLLAHAFAPGTGVGGDSHFDDDELWTLGEGQVVRVKYGNADGEYCKFPFLFNGKEYNSCTDTGRSDGFLWCSTTYNFEKDGKYGFCPHEALFTMGGNAEGQPCKFPFRFQGTSYDSCTTEGRTDGYRWCGTTEDYDRDKKYGFCPETAMSTVGGNSEGAPCVFPFTFLGNKYESCTSAGRSDGKMWCATTANYDDDRKWGFCPDQGYSLFLVAAHEFGHAMGLEHSQDPGALMAPIYTYTKNFRLSQDDIKGIQELYGASPDIDLGTGPTPTLGPVTPEICKQDIVFDGIAQIRGEIFFFKDRFIWRTVTPRDKPMGPLLVATFWPELPEKIDAVYEAPQEEKAVFFAGNEYWIYSASTLERGYPKPLTSLGLPPDVQRVDAAFNWSKNKKTYIFAGDKFWRYNEVKKKMDPGFPKLIADAWNAIPDNLDAVVDLQGGGHSYFFKGAYYLKLENQSLKSVKFGSIKSDWLGC
In the case of B1, the “degradation of rhIFNAR1 after overnight incubation with MMP-2 (Western blot)” value [1] is reported as “recombinant rhIFNAR1 (≈110 kD) incubated overnight with active MMP-2 was degraded by MMP-2” and the “MCP-3 degradation (MCP-3 content by ELISA after overnight incubation)” value (rhMCP-3, P80098) is reported as “MMP-2 activity was controlled by measuring its capacity to degrade MCP-3”.
